Experimental data reported in article PMC9368738, “The Mechanistic Understanding of RAD51 Defibrillation: A Critical Step in BRCA2-Mediated DNA Repair by Homologous Recombination” (International Journal of Molecular Sciences, 2022).
Values joined by “and” are separate entries in the source; they are usually repeats but may differ in a detail not shown here. Identical values can stand only once.

Legend:
[1] = test system: RAD51 foci in BxPC-3 cell nuclei; assay: Immunofluorescence detection of RAD51 nuclear foci; format: cell-based; settings: 1.5 h
Experimental: General cell culture. BxPC-3 cells (purchased from ATCC) were grown in RPMI 1640 containing 10% FBS, 100 U/mL penicillin–streptomycin, and 2 mM glutamine. All media and supplements were from Sigma-Aldrich. Cultures were routinely tested for mycoplasma contamination. Immunofluorescence. Immunofluorescence was used to study RAD51 nuclear translocation. To visualize RAD51 in cell nuclei, BxPC-3 cells were seeded on glass coverslips placed in a 6-well culture plate (2 × 10^5 cells/well) and allowed to adhere for 24 h. […] The medium was then removed to eliminate the chemotherapeutic agents, and cells were maintained in the presence of 5 µM BRC4myr for an additional 4 h. After this time, cells were fixed with PBS containing PFA 4% for 15 min, permeabilized in 70% ethanol, and then washed twice in PBS. […] After washing, coverslips were incubated in secondary anti-rabbit rhodamine-labelled antibody (Novus Biologicals, 1:1000 in 1% BSA/PBS) for 30 min at 37 °C, washed, air-dried, and mounted in a solution 2 µg/mL DAPI in DABCO. Images were acquired using a Nikon fluorescent microscope equipped with filters for TRITC and DAPI. The percentage of cells bearing nuclear foci was estimated by analyzing approximately 300 cells for each treatment sample.

[2] = molecular target: RAD51 (Homo sapiens) (UniProt Q06609); assay: GST pull-down; settings: cited from earlier work
[3] = test system: RAD51; settings: pull-down assays; cited from earlier work
Source text: This information comes from the only 3D structure of the RAD51-BRC4 interaction (PBD 1NOW).

[4] = molecular target: full-length recombinant human RAD51 (N-terminal 6xHis-tagged) (human) (UniProt Q06609)
[5] = molecular target: T1, RAD51 fibrils (full-length recombinant human RAD51) (Homo sapiens, UniProt Q06609); assay: Static light scattering (SLS / CG-MALS) of BRC4-induced RAD51 defibrillation; format: biochemical; settings: RAD51 6.25 µM = 0.25 mg/mL; very significant stoichiometric excesses of peptide
T1 construct: The full-length human RAD51 was expressed in E. coli Rosetta2(DE3) pLysS cells; made in house; host or cells: E. coli Rosetta2(DE3) pLysS, pET15b plasmid
T1 sequence (Q06609 1-339): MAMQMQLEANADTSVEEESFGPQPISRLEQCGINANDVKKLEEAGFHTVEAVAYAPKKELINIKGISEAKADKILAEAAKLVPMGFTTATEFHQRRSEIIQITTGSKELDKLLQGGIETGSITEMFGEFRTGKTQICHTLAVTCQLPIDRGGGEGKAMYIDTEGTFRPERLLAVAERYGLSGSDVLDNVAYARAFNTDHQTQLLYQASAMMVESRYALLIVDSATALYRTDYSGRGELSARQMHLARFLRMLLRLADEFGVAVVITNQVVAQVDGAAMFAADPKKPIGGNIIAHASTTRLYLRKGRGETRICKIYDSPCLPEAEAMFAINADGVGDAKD
Experimental: Static light scattering (SLS) and composition-gradient multi-angle static light scattering (CG-MALS). Measurements were carried out using a Calypso automated delivery system as a mixing unit, connected to a Dawn Heleos II multi-angle light scattering (MALS) and a T-rEX refractive index (RI) detector, both operating at 660 nm (all instruments produced by Wyatt Technology, Santa Barbara, CA, USA). […] Injection volume and flow rate were fixed at 0.8 mL and 1 mL/min, respectively. A delay time of 180 s was set between each injection.

[6] = test system: RAD51 fibrils; assay: Negative staining TEM of RAD51 fibrils; format: biochemical, human; settings: large stoichiometric excess of peptide; RAD51 0.1 mg/mL (2.5 µM); incubation 2 h at 4 °C
Experimental: After incubation, each sample was adsorbed into pure carbon film 300-mesh copper grids (Electron Microscopy Sciences, Hatfield, PA, USA). After several washes in RAD51 storage buffer (20 mM Hepes (pH 8.00), 250 mM KCl, 0.1 mM EDTA, 2 mM DTT, 10% (v/v) glycerol), each sample was negatively stained using 1% uranyl acetate in MQ water. […] In total, more than 2500 fibrils from different negative staining experiments were measured for quantification.

[7] = molecular target: T2, 6xHis-RAD51 (full-length recombinant human RAD51) (Homo sapiens, UniProt Q06609); assay: Microscale thermophoresis (MST); format: binding; settings: highest concentration tested 400 μM; data not shown
T2 construct: The full-length human RAD51 was expressed in E. coli Rosetta2(DE3) pLysS cells; made in house; host or cells: E. coli Rosetta2(DE3) pLysS, pET15b plasmid
T2 sequence (Q06609 1-339): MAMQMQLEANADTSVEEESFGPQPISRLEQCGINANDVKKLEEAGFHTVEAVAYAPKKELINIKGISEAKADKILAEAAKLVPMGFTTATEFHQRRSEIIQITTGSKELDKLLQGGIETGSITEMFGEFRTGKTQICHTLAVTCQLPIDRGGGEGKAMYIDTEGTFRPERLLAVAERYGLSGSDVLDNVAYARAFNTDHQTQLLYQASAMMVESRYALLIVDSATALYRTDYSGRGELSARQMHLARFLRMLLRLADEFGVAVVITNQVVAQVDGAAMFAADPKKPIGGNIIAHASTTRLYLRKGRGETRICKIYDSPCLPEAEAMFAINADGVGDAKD

[8] = molecular target: T3, full-length recombinant human RAD51 (N-terminal 6xHis-tagged) (human), Q06609; assay: static light scattering (CG-MALS, Zimm plots); RAD51 alone at five concentrations between 0.1 and 0.35 mg/mL (2.5-8.75 µM); 20 mM HEPES pH 8, 0.1 mM EDTA, 250 mM KCl, 5% glycerol, 2 mM DTT; settings: remark: other sources report otherwise
T3 chain: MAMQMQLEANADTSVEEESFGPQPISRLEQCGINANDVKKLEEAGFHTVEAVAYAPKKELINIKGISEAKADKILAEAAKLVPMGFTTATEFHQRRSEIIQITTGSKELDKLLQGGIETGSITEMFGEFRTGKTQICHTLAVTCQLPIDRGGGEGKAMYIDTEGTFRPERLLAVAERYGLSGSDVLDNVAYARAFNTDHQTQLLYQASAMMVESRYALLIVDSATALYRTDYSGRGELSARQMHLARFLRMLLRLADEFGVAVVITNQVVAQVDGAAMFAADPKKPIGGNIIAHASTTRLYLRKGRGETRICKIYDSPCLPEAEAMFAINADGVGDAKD

[9] = molecular target: T4, full-length recombinant human RAD51 (N-terminal 6xHis-tagged) (human, UniProt Q06609 1-339); assay: MST; RED-tris-NTA-labelled 6xHis-RAD51 constant (25 nM in the methods, 100 nM in the results), 16 concentrations of BRC4 up to 32 µM; apparent Kd bounded by the lowest EC50 (titration regime); settings: both partners purified
T4 construct: RAD51, human, full length; recombinase of 339 amino acids, about 40 kDa as monomer; Forms fibrils (homo-oligomers) without DNA; for MST labelled on the His tag with RED-tris-NTA 2nd Generation dye; also called His-RAD51; 6xHis-RAD51; source: E. coli Rosetta2(DE3) pLysS, pET15b, purified (His-Trap, anion exchange); not shown: His6, N-terminal, kept
T4 sequence (looked up): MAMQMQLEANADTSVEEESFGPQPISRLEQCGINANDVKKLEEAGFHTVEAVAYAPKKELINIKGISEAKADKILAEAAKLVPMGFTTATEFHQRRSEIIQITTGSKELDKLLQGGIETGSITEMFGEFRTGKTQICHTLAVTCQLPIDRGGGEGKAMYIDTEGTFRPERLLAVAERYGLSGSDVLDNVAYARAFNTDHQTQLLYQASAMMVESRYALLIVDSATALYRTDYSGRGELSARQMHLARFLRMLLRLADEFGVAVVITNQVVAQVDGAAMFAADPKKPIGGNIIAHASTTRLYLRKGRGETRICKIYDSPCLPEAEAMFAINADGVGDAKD

[10] = molecular target: T4, full-length recombinant human RAD51 …; assay: static light scattering + other: dynamic light scattering + MST; midpoint of BRC4-induced RAD51 defibrillation against the BRC4/RAD51 molar ratio, RAD51 6.25 µM (SLS, DLS) or 100 nM (MST); settings: both partners purified
[11] = molecular target: T4, full-length recombinant human RAD51 …; assay: static light scattering (CG-MALS) + other: dynamic light scattering; RAD51 constant at 0.25 mg/mL (6.25 µM) with BRC4 or scBRC4 from 0 to 0.19 mg/mL (48 µM); 20 mM HEPES pH 8, 0.1 mM EDTA, 250 mM KCl, 5% glycerol, 2 mM DTT; DLS at 25 °C; step constants kd and kd1 from a defibrillation model fitted to the apparent weight average mass; settings: both partners purified
[12] = molecular target: T4, full-length recombinant human RAD51 …; assay: negative-staining TEM with streptavidin-gold labelling; 0.1 mg/mL (2.5 µM) 6xHis-RAD51 with biotinylated BRC4 (non-labelled BRC4 as control) on grids, streptavidin-gold; settings: both partners purified

With `N.N.[Cl][Pt][Cl]` [cisplatin] the “RAD51 nuclear foci, cisplatin alone” value ([1]; 50 µM cisplatin) was “large number of nuclear RAD51 foci”.

For `COc1cccc2c1C(=O)c1c(O)c3c(c(O)c1C2=O)C[C@@](O)(C(=O)CO)C[C@@H]3O[C@H]1C[C@H](N)[C@H](O)[C@H](C)O1` [doxorubicin], the “RAD51 nuclear foci, doxorubicin alone” value ([1]; 200 nM doxorubicin) was “large number of nuclear RAD51 foci”.

For BRCA2 BRC4 (from UniProt P51587), the Kd [2] is given as 1500 nM.

In the case of “BRCA2: large protein (3418 amino acids) that interacts with RAD51 through eight BRC repeats”, the BRCA2-RAD51 binding affinity [3] is listed as “nanomolar affinity”.

myristoylated BRC4 peptide (BRC4myr) gave a homologous recombination (HR) assay in BxPC-3 cells, IC50 of HR inhibition [4] of 10 µM and a homologous recombination (HR) assay in BxPC-3 cells, percent HR inhibition at 5, 10 and 30 µM BRC4myr [4] of 85.1%.

In the case of “scBRC4: BRC4 (35 residues) peptide, carrying a double mutation [F1524A, T1526A] (KEPTLLGAHAASGKKVKIAKESLDKVKNLFDEKEQ)”, the “apparent weight average mass versus no-interaction prediction” value [5] is reported as “followed the theoretical “no-interaction” prediction”, the “RAD51 fibrils in TEM” value [6] is reported as “the fibrils were still visible” and the “binding to RAD51 (MST)” value [7] is reported as “no binding”.

B1: full-length recombinant human RAD51 (N-terminal 6xHis-tagged), Q06609 1-339 (natural protein)
chain: MAMQMQLEANADTSVEEESFGPQPISRLEQCGINANDVKKLEEAGFHTVEAVAYAPKKELINIKGISEAKADKILAEAAKLVPMGFTTATEFHQRRSEIIQITTGSKELDKLLQGGIETGSITEMFGEFRTGKTQICHTLAVTCQLPIDRGGGEGKAMYIDTEGTFRPERLLAVAERYGLSGSDVLDNVAYARAFNTDHQTQLLYQASAMMVESRYALLIVDSATALYRTDYSGRGELSARQMHLARFLRMLLRLADEFGVAVVITNQVVAQVDGAAMFAADPKKPIGGNIIAHASTTRLYLRKGRGETRICKIYDSPCLPEAEAMFAINADGVGDAKD
With B1 the stoichiometry N (protomers per aggregate) [8] was 40 and 70.

B2: BRC4 peptide (residues 1517-1551 of BRCA2) (peptide)
peptide: KEPTLLGFHTASGKKVKIAKESLDKVKNLFDEKEQ
notes: BRCA2, fourth BRC repeat, residues 1517-1551, MW 3957.6 Da; also called fourth BRC repeat of BRCA2; source: bought: Thermo Fisher Scientific (synthetic peptide)
In the case of B2, the Kd [9] is reported as at most 60 nM, the “stoichiometry N” value [10] is reported as 1 BRC4 per RAD51 and the “kd (each step of loss of a RAD51 unit from a fibril, from the defibrillation model)” value [11] is reported as 33.7 ± 0.5 dimensionless.

B3: biotinylated BRC4 peptide (peptide)
peptide: KEPTLLGFHTASGKKVKIAKESLDKVKNLFDEKEQ
modifications: biotin (position not given)
notes: BRCA2, fourth BRC repeat, residues 1517-1551, as BRC4; also called labelled peptide; source: bought: Thermo Fisher Scientific (synthetic peptide, BRC4 derivative)
B3: binds [12].
